Molecular target: FGFR1 (UniProt P11362)
Assay: phosphorylation enrichment, bacterial display (enrichment ratio); higher = better substrate or ligand; peptides without Tyr show the background
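For SH2 binding enrichment of the phosphorylated peptide, bacterial display in this document: peptide library displayed on the E. coli surface as eCPX fusions, selected cells deep-sequenced, score is each peptide's frequency after selection divided by its frequency in the input.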
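For phosphorylation enrichment, bacterial display in this document: 11-residue human phosphosite peptides and single-mutation variants displayed on the E. coli surface, counted by deep sequencing, each peptide's frequency after selection divided by its frequency in the unselected input library; frequency after pTyr selection over input frequency; kinase dosed for 20-30% of maximal phosphorylation in three min.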

Sequence of FGFR1 (P11362 whole entry, looked up): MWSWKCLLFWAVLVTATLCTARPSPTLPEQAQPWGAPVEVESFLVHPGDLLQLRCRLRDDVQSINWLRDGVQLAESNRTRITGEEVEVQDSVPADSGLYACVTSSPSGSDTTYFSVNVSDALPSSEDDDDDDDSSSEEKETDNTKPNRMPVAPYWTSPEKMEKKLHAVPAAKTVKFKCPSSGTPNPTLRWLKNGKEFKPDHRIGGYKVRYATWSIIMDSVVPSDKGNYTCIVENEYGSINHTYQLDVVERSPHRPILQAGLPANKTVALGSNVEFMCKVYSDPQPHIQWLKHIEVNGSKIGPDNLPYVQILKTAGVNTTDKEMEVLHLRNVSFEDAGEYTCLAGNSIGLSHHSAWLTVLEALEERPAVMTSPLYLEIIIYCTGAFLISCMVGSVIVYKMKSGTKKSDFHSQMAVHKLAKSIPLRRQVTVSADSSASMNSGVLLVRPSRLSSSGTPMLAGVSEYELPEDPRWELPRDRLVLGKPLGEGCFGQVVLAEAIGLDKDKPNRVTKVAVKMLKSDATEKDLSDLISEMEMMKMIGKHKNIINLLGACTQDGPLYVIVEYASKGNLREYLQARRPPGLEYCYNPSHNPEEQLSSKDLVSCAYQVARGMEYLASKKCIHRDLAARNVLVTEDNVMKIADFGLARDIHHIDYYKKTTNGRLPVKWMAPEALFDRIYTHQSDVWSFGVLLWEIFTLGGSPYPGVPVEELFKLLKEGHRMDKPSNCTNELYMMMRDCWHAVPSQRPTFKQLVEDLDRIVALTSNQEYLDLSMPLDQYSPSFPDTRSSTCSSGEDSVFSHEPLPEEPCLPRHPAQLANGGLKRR

In order of falling phosphorylation enrichment:
1. LRTAVYHEILI [CREBBP_Y1450]  16.7
2. QTPVLYTMLDH [MPZ_Y220_A221T]  2.85
3. LAARFYNWVSF [FLT4_Y1231_YF]  1.27
4. QRRLVYFERGA [RYR1_Y245_G248R_YF]  0.918
5. PGVNYYFRVSA  0.787
6. SWSTSYSGYRY [NKAPL_Y91]  0.707
7. VKYLGYPPPEI [KDR_Y357_A352V]  0.666
8. PVQAAYQKVVD [HBB_Y131_A136D]  0.655
9. EIEFLYNENTV [IARS1_Y680]  0.645
10. GEDEPYAEPYA [APBA1_Y183_S184A]  0.608
11. FKDGQYWIRGQ [ACSF3_Y466_R471Q]  0.598
12. NDFGNYNQQPS [HNRNPA2B1_Y306]  0.589
13. AIKSFYAALID [RYR1_Y2426_M2423K]  0.553
14. TLSGIYQFNIA [FOXL2_Y81_I84N_YF]  0.543
15. FSQQTYCRVSN [ABCD1_Y180_Y181C]  0.538
16. EHLNRYINDTF [TTLL10_Y446_S448N]  0.525
17. GVTLLCFGRFN [ADGRD1_Y85_Y85C_YF]  0.524
18. GEIQEYGAPSD [ABCC1_Y1508]  0.523
19. IVRSLYEDPED [VHL_Y185_L188P]  0.502
20. GGDGSYVSVPL [TNNI3K_Y425_S430L]  0.5
21. SVNCTYSPALN [TP53_Y126_T123N]  0.484
22. SYCYRYCCAAR [SUMF1_Y344_R345C]  0.47
23. EIIPFYGMSTY [FNDC3B_Y175]  0.454
24. NSAFFYKTAEE [CCT6B_Y250_G247A]  0.452
25. MSNSAYVKREV [SCN1A_Y1694_F1692S]  0.45
26. KRIETYFSKNY [PLP1_Y50_L46R]  0.436
27. TRSYKYLLLSM [NF1_Y491]  0.433
28. ATARPYRPFII [LRP5_Y1528_YF]  0.402
29. DFGSGYPNDPK [RNASEH2A_Y210_YF]  0.397
30. FQKDVYDIPPS [NEDD9_Y177_YF]  0.384
31. TEFIQYMRRKN [MAX_Y73_YF]  0.367
32. ADRARYSAFGG [RBM4_Y361]  0.35
33. VGTKRYVAPEV [ACVRL1_Y375_M376V]  0.332

Molecular target: Grb2 SH2 (UniProt P62993)
Sequence (P62993 whole entry, looked up): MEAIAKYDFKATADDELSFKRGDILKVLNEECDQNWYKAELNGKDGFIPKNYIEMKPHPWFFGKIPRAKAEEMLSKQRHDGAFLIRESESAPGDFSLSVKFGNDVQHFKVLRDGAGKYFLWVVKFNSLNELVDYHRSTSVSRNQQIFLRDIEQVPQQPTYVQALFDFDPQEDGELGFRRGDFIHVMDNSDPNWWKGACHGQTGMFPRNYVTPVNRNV
Assay: SH2 binding enrichment of the phosphorylated peptide, bacterial display (enrichment ratio); higher = better substrate or ligand; peptides without Tyr show the background

In order of rising SH2 binding enrichment:
1. TEFIQYMRRKN [MAX_Y73_YF]  0.675
2. EIEFLYNENTV [IARS1_Y680]  0.682
3. SVNCTYSPALN [TP53_Y126_T123N]  0.722
4. VGTKRYVAPEV [ACVRL1_Y375_M376V]  0.724
5. EIIPFYGMSTY [FNDC3B_Y175]  0.742
6. GEIQEYGAPSD [ABCC1_Y1508]  0.745
7. DFGSGYPNDPK [RNASEH2A_Y210_YF]  0.749
8. ADRARYSAFGG [RBM4_Y361]  0.78
9. KRIETYFSKNY [PLP1_Y50_L46R]  0.787
10. FSQQTYCRVSN [ABCD1_Y180_Y181C]  0.817
11. IVRSLYEDPED [VHL_Y185_L188P]  0.823
12. MSNSAYVKREV [SCN1A_Y1694_F1692S]  0.838
13. PGVNYYFRVSA  0.849
14. FKDGQYWIRGQ [ACSF3_Y466_R471Q]  0.856
15. LRTAVYHEILI [CREBBP_Y1450]  0.86
16. QTPVLYTMLDH [MPZ_Y220_A221T]  0.866
17. FQKDVYDIPPS [NEDD9_Y177_YF]  0.871
18. GGDGSYVSVPL [TNNI3K_Y425_S430L]  0.887
19. VKYLGYPPPEI [KDR_Y357_A352V]  0.896
20. NDFGNYNQQPS [HNRNPA2B1_Y306]  0.915
21. GVTLLCFGRFN [ADGRD1_Y85_Y85C_YF]  0.922
22. QRRLVYFERGA [RYR1_Y245_G248R_YF]  0.942
23. TLSGIYQFNIA [FOXL2_Y81_I84N_YF]  1
24. AIKSFYAALID [RYR1_Y2426_M2423K]  1.08
25. GEDEPYAEPYA [APBA1_Y183_S184A]  1.1
26. ATARPYRPFII [LRP5_Y1528_YF]  1.11
27. PVQAAYQKVVD [HBB_Y131_A136D]  1.12
28. SYCYRYCCAAR [SUMF1_Y344_R345C]  1.13
29. SWSTSYSGYRY [NKAPL_Y91]  1.17
30. NSAFFYKTAEE [CCT6B_Y250_G247A]  1.19
31. LAARFYNWVSF [FLT4_Y1231_YF]  1.26
32. TRSYKYLLLSM [NF1_Y491]  1.64
33. EHLNRYINDTF [TTLL10_Y446_S448N]  6.49

Molecular target: SHP2-C SH2
Assay: as above

In order of falling SH2 binding enrichment:
1. QTPVLYTMLDH [MPZ_Y220_A221T]  11.8
2. TRSYKYLLLSM [NF1_Y491]  2.46
3. SWSTSYSGYRY [NKAPL_Y91]  1.88
4. VKYLGYPPPEI [KDR_Y357_A352V]  1.84
5. PGVNYYFRVSA  1.64
6. LAARFYNWVSF [FLT4_Y1231_YF]  1.61
7. AIKSFYAALID [RYR1_Y2426_M2423K]  1.5
8. TLSGIYQFNIA [FOXL2_Y81_I84N_YF]  0.971
9. NSAFFYKTAEE [CCT6B_Y250_G247A]  0.923
10. GEDEPYAEPYA [APBA1_Y183_S184A]  0.885
11. GVTLLCFGRFN [ADGRD1_Y85_Y85C_YF]  0.863
12. LRTAVYHEILI [CREBBP_Y1450]  0.858
13. IVRSLYEDPED [VHL_Y185_L188P]  0.815
14. MSNSAYVKREV [SCN1A_Y1694_F1692S]  0.753
15. FQKDVYDIPPS [NEDD9_Y177_YF]  0.745
16. EHLNRYINDTF [TTLL10_Y446_S448N]  0.728
17. DFGSGYPNDPK [RNASEH2A_Y210_YF]  0.712
18. KRIETYFSKNY [PLP1_Y50_L46R]  0.71
19. PVQAAYQKVVD [HBB_Y131_A136D]  0.697
20. FSQQTYCRVSN [ABCD1_Y180_Y181C]  0.688
21. FKDGQYWIRGQ [ACSF3_Y466_R471Q]  0.688
22. GGDGSYVSVPL [TNNI3K_Y425_S430L]  0.682
23. NDFGNYNQQPS [HNRNPA2B1_Y306]  0.66
24. GEIQEYGAPSD [ABCC1_Y1508]  0.648
25. SYCYRYCCAAR [SUMF1_Y344_R345C]  0.627
26. ATARPYRPFII [LRP5_Y1528_YF]  0.625
27. EIEFLYNENTV [IARS1_Y680]  0.619
28. ADRARYSAFGG [RBM4_Y361]  0.58
29. QRRLVYFERGA [RYR1_Y245_G248R_YF]  0.578
30. SVNCTYSPALN [TP53_Y126_T123N]  0.544
31. TEFIQYMRRKN [MAX_Y73_YF]  0.54
32. EIIPFYGMSTY [FNDC3B_Y175]  0.539
33. VGTKRYVAPEV [ACVRL1_Y375_M376V]  0.403

Molecular target: c-Src SH2
Assay: as above

In order of rising SH2 binding enrichment:
1. VGTKRYVAPEV [ACVRL1_Y375_M376V]  0.354
2. SVNCTYSPALN [TP53_Y126_T123N]  0.381
3. NDFGNYNQQPS [HNRNPA2B1_Y306]  0.382
4. TEFIQYMRRKN [MAX_Y73_YF]  0.387
5. DFGSGYPNDPK [RNASEH2A_Y210_YF]  0.409
6. MSNSAYVKREV [SCN1A_Y1694_F1692S]  0.454
7. GVTLLCFGRFN [ADGRD1_Y85_Y85C_YF]  0.465
8. FQKDVYDIPPS [NEDD9_Y177_YF]  0.466
9. VKYLGYPPPEI [KDR_Y357_A352V]  0.495
10. KRIETYFSKNY [PLP1_Y50_L46R]  0.502
11. GEIQEYGAPSD [ABCC1_Y1508]  0.507
12. ADRARYSAFGG [RBM4_Y361]  0.55
13. NSAFFYKTAEE [CCT6B_Y250_G247A]  0.565
14. FKDGQYWIRGQ [ACSF3_Y466_R471Q]  0.592
15. PGVNYYFRVSA  0.611
16. EIEFLYNENTV [IARS1_Y680]  0.615
17. GGDGSYVSVPL [TNNI3K_Y425_S430L]  0.631
18. QRRLVYFERGA [RYR1_Y245_G248R_YF]  0.65
19. PVQAAYQKVVD [HBB_Y131_A136D]  0.719
20. TLSGIYQFNIA [FOXL2_Y81_I84N_YF]  0.742
21. GEDEPYAEPYA [APBA1_Y183_S184A]  0.821
22. ATARPYRPFII [LRP5_Y1528_YF]  0.861
23. SYCYRYCCAAR [SUMF1_Y344_R345C]  0.931
24. FSQQTYCRVSN [ABCD1_Y180_Y181C]  1.02
25. EHLNRYINDTF [TTLL10_Y446_S448N]  1.02
26. SWSTSYSGYRY [NKAPL_Y91]  1.03
27. TRSYKYLLLSM [NF1_Y491]  1.15
28. LAARFYNWVSF [FLT4_Y1231_YF]  1.25
29. AIKSFYAALID [RYR1_Y2426_M2423K]  1.67
30. IVRSLYEDPED [VHL_Y185_L188P]  3.15
31. QTPVLYTMLDH [MPZ_Y220_A221T]  3.44
32. LRTAVYHEILI [CREBBP_Y1450]  3.56
33. EIIPFYGMSTY [FNDC3B_Y175]  4.96
